Experiments:
[1] = molecular target: T1, human CD4 on the surface of SKW3 cells or human PBMCs (human, UniProt P01730 26-458); experiment: FACS confirmation, supernatant on human PBMCs, anti-mouse Fc A647
T1 construct: whole, on cells; SKW3 CD4 knockout cells served as the negative cell line; also called hCD4; SKW3 WT
Experimental: (§1) FACS Confirmation screens were performed for primary screening positive hybridomas using human PBMCs in addition to SKW3/SKW3 CD4 KO cell lines. PBMCs were thawed and resuspended to 8E6/mL in FACS buffer. […] PBMCs were added to the 96 well plates (25 μL/well) and incubated at 4° C. for 30 minutes. […] Cells were washed twice before acquired by IQUE3 Flow Cytometer and analyzed with FORECYT software (Sartorius). Primary parameter used to assess confirmation was CD4 positive percent of viable cells. […] SKW3 gMFI binding was used as secondary parameter to assess confirmation.

[2] = molecular target: T1, human CD4 on the surface of SKW3 cells …; experiment: FACS confirmation, supernatant on human PBMCs, anti-mouse Fc A647, CD4+ gate
Experimental: as §1

[3] = molecular target: T1, human CD4 on the surface of SKW3 cells …; experiment: FACS confirmation, supernatant on SKW3 WT cells, anti-mouse Fc A647; background gMFI 3300
Experimental: as §1

[4] = molecular target: T1, human CD4 on the surface of SKW3 cells …; experiment: FACS confirmation, supernatant on SKW3 WT cells, anti-human kappa FITC; background gMFI 2500
[5] = molecular target: T1, human CD4 on the surface of SKW3 cells …; experiment: FACS primary screen, non-clonal hybridoma supernatant, SKW3 vs SKW3 CD4 KO cells, anti-mouse Fc A647
Experimental: (§2) FACS cell binding. αCD4 antibody producing hybridomas were identified by cell surface CD4 binding using FACS. For primary screening SKW3 (human T-ALL) was used as the CD4 positive cell line and SKW3 CD4 knockout (KO) as the negative cell line, respectively. SKW3 KO cells were labeled with Tag-it Violet (BioLegend) at RT for 15 min. After removing extra dye by washing cells with FACS buffer (1% BSA/1 mM EDTA/0.05% NaN3 in PBS) equal number of SKW3 and labeled SKW3 CD4 KO cells were combined, washed, and resuspended in FACS buffer at 8E6 cells/6 mL. […] Cells (˜20K/15 μL/well) were added to the supernatant and incubated at 4° C. for 30 minutes. […] Cells were washed twice before acquired by IQUE3 Flow Cytometer and analyzed with FORECYT software (Sartorius). Positive wells were selected with the following criteria: Over 2-fold selective binding to SKW3 cell line relative to SKW3 CD4 KO with over 10% signal above background binding with anti-human Kappa. Hybridomas from primary screening positive wells were transferred to 96 well plates.

[6] = molecular target: T1, human CD4 on the surface of SKW3 cells …; experiment: FACS primary screen, non-clonal hybridoma supernatant, SKW3 vs SKW3 CD4 KO cells, anti-human kappa FITC
Experimental: as §2

[7] = molecular target: T1, human CD4 on the surface of SKW3 cells …; experiment: FACS binning on SKW3 cells; competitor OKT4-Alexa Fluor 488 (its signal read); background 2163, max binding 8200
Experimental: (§3) αCD4 containing hybridoma supernatants were binned against three comparator antibodies by FACS using SKW3 cells, which endogenously express human CD4 protein. Briefly, SKW3 cells were incubated with saturated hybridoma supernatant for 30 minutes at 4° C.

[8] = molecular target: T1, human CD4 on the surface of SKW3 cells …; experiment: FACS binning on SKW3 cells; competitor RPA-T4-PE-Dazzle 594 (its signal read); background 783, max binding 15000
Experimental: as §3

huCD4-HIS = molecular target: T2, huCD4-HIS (human, UniProt P01730 26-390, limits assumed); experiment: ELISA binning; competitor ibalizumab; 100 ng/mL huCD4-HIS, anti-HIS HRP detection; background 45, max binding 3000000
T2 construct: not shown: HIS tag

[9] = molecular target: T1, human CD4 on the surface of SKW3 cells …; experiment: FACS binning on SKW3 cells; competitor OKT4a, anti-human A647 secondary (its signal read); background 5000, max binding 35000
Experimental: as §3

| Binder | PBMCs, anti-mFc 647 CD4+ Percent Bound of Viable [1] [%] | PBMCs, anti-mFc 647 CD4+ gate - RL1 Binding [2] | SKW3 WT anti-mFc 647, gMFI [3] [gMFI] | SKW3 WT anti-hu Kappa FITC, gMFI [4] [gMFI] | SKW3 WT vs KO anti-mFc-647 [5] [ratio] | SKW3 WT vs KO anti-hKappa-FITC [6] [ratio] | OKT4 A488 signal [7] | RPA-T4-PE-Dazzle 594 signal [8] | Ibalizumab ELISA binning signal (huCD4-HIS) | OKT4a anti-hu A647 Secondary signal [9] |
| --- | --- | --- | --- | --- | --- | --- | --- | --- | --- | --- |
| 75110_04B08A (antibody, V domains shown, Tested here as non-clonal hybridoma supernatant from AlivaMab Mouse Kappa mice (detected with anti-mouse Fc and anti-human kappa)) VH: QVQLVESGGGVVQPGRSLRLSCTASGFNFINYGIHWVRQAPGKGLEWVTIIWYDGSKKYYADSVKGRFAISRDNSKNTLYLQMNSLRAEDTAVYYCAREDDWNDGLAYWGQGTLVTVSS VL: AIQMTQSPSSLSASVGDRVTITCRASQDIRNDLGWYQQKPGKAPNLLIYAASNLQSGVPSRFSGSGSGTDFTLTISSLQPEDFATYYCLQDSNYPRTFGQGTKVEIK | 29 | 274000 | 22600 | 6160 | 6.7 | 2.3 | 3170 | 14900 | 1.95e+06 | 43400 |
| 75110_02E08A (antibody, V domains shown, Tested here as non-clonal hybridoma supernatant from AlivaMab Mouse Kappa mice (detected with anti-mouse Fc and anti-human kappa)) VH: QVQLQESGPGLVKPSETLSLTCTVSGGSISTYYWTWIRQPAGKGLEWIGRVYTSGDTNYNPSLKSRVAMSLDTSKNQFSLKLSSVTAADTAVYYCARDSGALYSWNYGDAFDIWGQGTMVTVSS VL: DIQMTQSPSAMSASVGDRVTITCRASQDISNYLAWFQQKPGKVPKRLIYAASSLQSGVPSRFSGSGSGTEFTLTISSLQPEDFATYYCLQHNSYPRTFGQGTKVEIK | 31 | 317000 | 30900 | 7260 | 8.4 | 3.1 | 3320 | 13500 | 335000 | 41500 |
| 75110_03L12A (antibody, V domains shown, Tested here as non-clonal hybridoma supernatant from AlivaMab Mouse Kappa mice (detected with anti-mouse Fc and anti-human kappa)) VH: QVQLQQWGAGLLKPSETLSLTCAVYGGSFSGYYWSWIRQPPGKGLEWIGEINHSGSTNYNPSLKSRVTISVDTSENQFSLTLISVTAADTAVYYCVRLINWFDPWGQGTLVTVSS VL: DIQMTQSPSSVSASVGDRVTITCRASQDISNWLAWYQQKPGKAPKLLIFAASSLQSGVPSRFSGSGSGTDFTLTISSLQPDDFATYYCQQANSFPYTFGQGTNLGIK | 28 | 229000 | 27300 | 8010 | 4.2 | 2.5 | 9750 | 20700 | 885000 | 5720 |
| 75110_10L22A (antibody, V domains shown, Tested here as non-clonal hybridoma supernatant from AlivaMab Mouse Kappa mice (detected with anti-mouse Fc and anti-human kappa)) VH: EVQLVESGGGLVQPGGSLRLSCAASGFTFSSYDMHWVRQATGKGLEWVSTIGTAGDTYYPGSVKGRFTISRENAKNSLYLQMNGLRAGDTAVYYCARGNYFYYGVDVWGQGTTVTVSS VL: not shown | 31 | 283000 | 27600 | 7020 | 3.4 | 2.1 | 2850 | 15000 | 1.88e+06 | 45900 |
| 75110_12H17A (antibody, V domains shown, Tested here as non-clonal hybridoma supernatant from AlivaMab Mouse Kappa mice (detected with anti-mouse Fc and anti-human kappa)) VH: EVQLVESGGGLVQPGGSLRLSCAASGFTFSDYWMSWVRQAPGKGLEWVANIKEDGNEKYYVDSVKGRFTISRDNAKNSLFLQMNSLRAEDTAVYYCAREGGQWLALDYWGQGALVTVSS VL: DIQMTQSPSSVSASVGDRVTITCRASQGISSWLAWYQQKPGKAPKFLISGASSLQSGVPSRFTGSGSGTDFTLTISSLQPEDFATYYCQQANSFPWTFGQGTKVEIK | 29 | 264000 | 18000 | 5360 | 4 | 2 | 4020 | 14800 | 2.2e+06 | 42000 |
| 75110_05L07A (antibody, V domains shown, Tested here as non-clonal hybridoma supernatant from AlivaMab Mouse Kappa mice (detected with anti-mouse Fc and anti-human kappa)) VH: EVQLVESGGGLVQPGGSLRLSCAASGFTFSSYWMSWVRQAPGKGLEWVANINQDGSDKYYVDSVKGRFTISRDNVKNSLYLQINSLRAEDTAVYYCAREGGQWLTLDYWGQGTLVTVSS VL: not shown | 29 | 181000 | 16300 | 5130 | 3.9 | 1.5 | 3120 | 15900 | 2.57e+06 | 37400 |
| 75110_05B13A (antibody, V domains shown, Tested here as non-clonal hybridoma supernatant from AlivaMab Mouse Kappa mice (detected with anti-mouse Fc and anti-human kappa)) VH: QVLLEQWGAGLLKPSETLSLTCAVYGGSFSGYYWTWIRQPPGKGLEWIGEINHRGSTNYNPSLKSRVTISIDTSKNQFSLKVKSVTAADTAMYYCTRPDSNWFDPWGQGTLVTVSS VL: DIQMTQSPSSVSASVGDRVTITCRASQDISNWLAWYQQKPGKAPKLLIFAASSLQSGVPSRFSGSGSGTDFTLTISSLQPEDFATYYCQQANSFPLTFGGGTKVEIK | 27 | 228000 | 26000 | 7310 | 3.1 | 2.4 | 9670 | 20300 | 1.03e+06 | 5340 |
| 75110_01J09A (antibody, V domains shown, Tested here as non-clonal hybridoma supernatant from AlivaMab Mouse Kappa mice (detected with anti-mouse Fc and anti-human kappa)) VH: EVQLVESGGGLVQPGGSLRLSCVASGFTFSSYWMSWVRQAPGKGLEWVANTKEDGSDKYYVDSVKGRFTICRDNAKNSLYLQMNSLRAEDTAVYYCAREGGQWLALDYWGQGTLVTVSS VL: DIQMTQSPSSVSASVGDRVTINCRASQGISSWLAWYQQKPGKAPNLLIFGASSLQSGVPSRFSGSGFGTDFSLTITTLQPEDFATYHCQQANSFPWTFGQGTKVEIK | 31 | 321000 | 32300 | 5930 | 7.5 | 2.4 | 2140 | 14700 | 1.26e+06 | 43700 |
| 75110_03C01A (antibody, V domains shown, Tested here as non-clonal hybridoma supernatant from AlivaMab Mouse Kappa mice (detected with anti-mouse Fc and anti-human kappa)) VH: QVQLQQWGAGLLKPSETLSLTCAVYGGSFSGYYWSWIRQSPGKGLEWIGEINQSGSTNYNPSLKSRVTISVDTSKDQFSLKLSSVTAADTAVYYCARVINWFDSWGQGSLVTVSS VL: DIQMTQSPSSVSASVGDRVTITCRASQGISSWLAWYQQKPGNAPKLLIYDASSFQSGVPSRFSGSGSGTDFTLTISSLQTEDFATYYCQQANSFPYTFGQGTKLEIK | 28 | 266000 | 18700 | 5920 | 8 | 2.4 | 9510 | 19200 | 865000 | 6980 |
| 75110_04P08A (antibody, V domains shown, Tested here as non-clonal hybridoma supernatant from AlivaMab Mouse Kappa mice (detected with anti-mouse Fc and anti-human kappa)) VH: QVQLQQWGAGLLKPSETLSLTCAVYGGSLSGYYWSWIRQSPGKGLEWIGEINQSGSTNYNPSLKSRVTISVDTSKDQFSLRLTSVTAADTAVYYCTRVLNWFDPWGRGTLVTVSS VL: DIQMTQSPSSVSASVGDRVTLTCRASQDISNWLAWYQQKPGKAPKLLIYAASSLQSGVPSRFSGSGSGTDFTLTISSLQTEDFATYYCQQANSFPYTFGQGTKLEIK | 28 | 260000 | 25300 | 7420 | 8.4 | 3 | 9760 | 19900 | 1.57e+06 | 6060 |
| 75110_12H19A (antibody, V domains shown, Tested here as non-clonal hybridoma supernatant from AlivaMab Mouse Kappa mice (detected with anti-mouse Fc and anti-human kappa)) VH: EVQLVESGGGLVQPGGSLRLSCAASGFTFSSYWMSWVRQAPGQGLEWVANINEDGNEKYHVDSVKGRLTISRDNAKNSLYLQMNSLRGVDTAVYFCAREGGQWLALDYWGQGALVTVSS VL: DIQMTQSPSSVSASVGDRVSITCRASQGISSWLAWYQQKPGKAPKLLIYGASGLQSGVPSRFSGSGSGTDFTLTISSLQPEDFATYYCQQANSFPWTFGQGTKVEIK | 27 | 244000 | 22800 | 6550 | 5.2 | 2.4 | 2620 | 14600 | 1.74e+06 | 34400 |

Source: patent publication US20220112288A1 (published 2022)
